From article PMC314469, “Protein Interaction Networks by Proteome Peptide Scanning” (PLoS Biology, 2004)

T1: Abp1 SH3 (ABP1_YEAST), P15891
T1 chain: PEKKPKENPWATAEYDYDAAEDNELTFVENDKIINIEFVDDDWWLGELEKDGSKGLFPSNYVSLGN


Biological target: T1, Abp1 SH3 (ABP1_YEAST), P15891
Test: SPOT array

Binder | normalised SPOT signal, Boehringer light units (BLU); mean over the file's lines of this peptide
EESKARSPGIAKP [YDR227W 268-280] | 404
EEKAKAVNELPTKP [YGR037C 7-20] | 188
DVKKEQAPEGKRP [YDL213C 31-43] | 94.6
DSIAKLQPQVYKP [YFR037C 542-554] | 83.3
EALKQKKIPPPFKP [YHR205W 677-690] | 3010
DVIISPTTLMPFRP [YDR242W 443-456] | 68.9
DSKGARFLPAPHRP [YGR154C 60-73] | 299
DNARKSEELYPGRP [YAL038W 65-78] | 105
EDDTNPQLLEPVKP [YDR528W 157-170] | 86.1
DKYSTLRPGIPLKP [YDL164C 380-393] | 1000
EFRKSDEPVSVKP [YBR237W 77-89] | 69.6
DTNDIKTPHPERP [YER169W 627-639] | 77.3
DSSLQHQQRQPKRP [YJR147W 209-222] | 105
DVDSSSTPFGTKP [YIL115C 681-693] | 113
DLPEYLLPPDLKP [YDR477W 309-321] | 23.2
DMERKMTPALNRP [YDR074W 548-560] | 2180
DVGSTIPYDFPEKP [YGL212W 55-68] | 140
DSSSANGKFIPSRP [YHL007C 462-475] | 98.6
EETIVFLQSDPSRP [YDR127W 1000-1013] | 50.7
DQNQERKNSVPKKP [YHR004C 68-81] | 60
DLTVLRKPQQLRP [YDR488C 342-354] | 27100
EEEIELPPGVKKP [YFL004W 659-671] | 77.1
DVITHFGPDADKP [YBL035C 6-18] | 25.6
DVLFSYFPITFKP [YIL128W 218-230] | 32.1
EDEEGPPPAMPARP [YBL007C 188-201] | 36.2
DPQIMDEYSYPGRP [YDR182W 95-108] | 144
DQVPVTTQLPPIKP [YER159C 3-16] | 74.1
DRRRLLGPAAAKP [YGR158C 5-17] | 483
DTERLKRDLSPRKP [YBL111C 228-241] | 394

Now from value to binder:

normalised SPOT signal, Boehringer light units (BLU); mean over the file's lines of this peptide | Binder
68.3 | DNDEEADPSSFKP [YLR087C 1186-1198]
118 | EFRQEIIDRVPLRP [YMR027W 61-74]
126 | EGKNEETPQNEKP [YKL144C 179-191]
230 | DMFDFLIDVVPRRP [YOR358W 226-239]
145 | DWALLRNQNDPQKP [YLR357W 414-427]
440 | DLKSRVLPHLKKP [YNL241C 60-72]
132 | EGSQSVPIEIPKKP [YLR081W 51-64]
254 | EEFDSYSRSRPTRP [YNL165W 290-303]
76 | DLHTHNLHTIPRKP [YNL042W 273-286]
84.6 | DLNDSGFPPKRKP [YMR275C 4-16]
4.8 | EGGAYIIPNFGKP [YPR184W 920-932]
89.2 | DLEFIYDTFHPFKP [YPL009C 301-314]
81.5 | EEEEGEVLLPPSRP [YLR079W 130-143]
108 | EEPEDFLPPPPKP [YLR285W 15-27]
91 | DNIAEYVPDKKRP [YMR266W 274-286]
86.6 | DLNNLKHPSKGRP [YMR304W 152-164]
145 | EEFPEIIPLQQRP [YPL117C 30-42]
128 | EGQVLYDPEPFKP [YNL086W 59-71]
0 | DSIWPDFETLPERP [YLL029W 272-285]
2060 | DLPRLKWSAIPVRP [YMR265C 218-231]
135 | DTLYINGIRIPYRP [YPR032W 898-911]
76.2 | DPEPAKASTKPEKP [YNL106C 1102-1115]
130 | DTKRLGTPESVKP [YLR071C 1030-1042]
62 | DVAQPGGVAKPKKP [YNL298W 506-519]
380 | DSVLRQKPDKPRP [YMR032W 380-392]
72.6 | EFTDMEIPDSVKP [YKL010C 660-672]
144 | DVPNTAGPHIARP [YOR028C 108-120]
2470 | DVMKQSFPRLIKP [YPL073C 93-105]
144 | EDFKDTKPVHKKP [YOR287C 64-76]
